For 5 sequences, Kd results are on record in the Immune Epitope Database (IEDB).

The target of one test is HLA-C*05:01. Briefly: IEDB peptide-MHC binding, purified MHC/direct/fluorescence; filed as Kd, often an IC50 or EC50 that approximates it; ≥ and ≤ were set here for values at or beyond the usual limits of such assays.
For the next test, the target named is HLA-A*02:06. Briefly: IEDB peptide-MHC binding, purified MHC/competitive/radioactivity; filed as Kd, often an IC50 or EC50 that approximates it; ≥ and ≤ were set here for values at or beyond the usual limits of such assays. As to conditions: source organism: Vaccinia virus Copenhagen.
Test [1] concerns the target HLA-A*02:03. Described as above. The settings on record: source organism: Vaccinia virus Copenhagen.
The target of a further test is HLA-A*02:02. The description is as above. The settings on record: source organism: Vaccinia virus Copenhagen.
The target in test [2] is HLA-A*02:01. Briefly: IEDB peptide-MHC binding, purified MHC/competitive/fluorescence; filed as Kd, often an IC50 or EC50 that approximates it; ≥ and ≤ were set here for values at or beyond the usual limits of such assays.
The next test has as its target HLA-A*24:03. The test is described as above.
Another test addresses HLA-A*02:19. The description is as above.
The target of test [3] is HLA-B*15:01. Described as above.
The target in test [4] is HLA-B*15:17. Described as above. The settings on record: source organism: Influenza A virus (A/swine/Italy/1513-1/1998(H1N1)).
A further test addresses HLA-B*39:01. Described as above.
Test [5] concerns the target HLA-A*02:03. The test is described as above. The settings on record: source organism: Influenza A virus (A/swine/Italy/1513-1/1998(H1N1)).
The target in test [6] is HLA-A*26:01. The test is described as above.
Test [7] concerns the target HLA-A*69:01. Described as above. The settings on record: source organism: Influenza A virus (A/swine/Italy/1513-1/1998(H1N1)).
A further test addresses HLA-A*02:12. The description is as above.
In test [8] the target is HLA-A*31:01. The test is described as above. As to conditions: source organism: Influenza A virus (A/swine/Italy/1513-1/1998(H1N1)).
Test [9] has as its target HLA-B*18:01. Described as above.
For test [10], the target named is HLA-B*46:01. Described as above.
A further test deals with HLA-B*27:03. Described as above.
For test [11], the target named is HLA-A*68:02. Described as above. The settings on record: source organism: Influenza A virus (A/swine/Italy/1513-1/1998(H1N1)).
Test [12] addresses HLA-B*57:01. The test is described as above.
For another test, the target named is HLA-B*51:01. The description is as above.
Test [13] concerns the target HLA-B*15:01. The experiment in a line: IEDB peptide-MHC binding, purified MHC/direct/fluorescence; filed as Kd, often an IC50 or EC50 that approximates it; ≥ and ≤ were set here for values at or beyond the usual limits of such assays. The settings on record: source organism: Marburg virus - Musoke, Kenya, 1980.
For test [14], the target named is HLA-B*15:17. The test is described as above. As to conditions: source organism: Marburg virus - Musoke, Kenya, 1980.
The target in the next test is HLA-A*26:02. The test is described as above. As to conditions: source organism: Ravn virus - Ravn, Kenya, 1987.
The target in test [15] is HLA-A*26:01. Described as above. As to conditions: source organism: Ravn virus - Ravn, Kenya, 1987.
In test [16] the target is HLA-A*69:01. The test is described as above. As to conditions: source organism: Marburg virus - Musoke, Kenya, 1980.
The next test concerns the target HLA-B*48:01. The description is as above. The settings on record: source organism: Marburg virus - Musoke, Kenya, 1980.
A further test concerns the target HLA-B*58:01. The description is as above. The settings on record: source organism: Marburg virus - Musoke, Kenya, 1980.
The target in the next test is HLA-A*01:01. The description is as above. The settings on record: source organism: Marburg virus - Musoke, Kenya, 1980.
The next test addresses HLA-A*11:01. Described as above. The settings on record: source organism: Marburg virus - Musoke, Kenya, 1980.
The target of test [17] is HLA-A*03:01. The test is described as above. As to conditions: source organism: Marburg virus - Musoke, Kenya, 1980.
The next test has as its target HLA-B*27:05. The description is as above. As to conditions: source organism: Marburg virus - Musoke, Kenya, 1980.
Test [18] addresses HLA-A*31:01. The description is as above. As to conditions: source organism: Marburg virus - Musoke, Kenya, 1980.
The target of test [19] is HLA-A*02:01. The description is as above. As to conditions: source organism: Marburg virus - Musoke, Kenya, 1980.
For test [20], the target named is HLA-B*18:01. The test is described as above. The settings on record: source organism: Marburg virus - Musoke, Kenya, 1980.
Test [21] concerns the target HLA-B*46:01. Described as above. As to conditions: source organism: Marburg virus - Musoke, Kenya, 1980.
Another test deals with HLA-B*40:01. The test is described as above. The settings on record: source organism: Marburg virus - Musoke, Kenya, 1980.
For test [22], the target named is HLA-A*68:02. The description is as above. As to conditions: source organism: Marburg virus - Musoke, Kenya, 1980.
Another test concerns the target HLA-B*07:02. The description is as above. The settings on record: source organism: Marburg virus - Musoke, Kenya, 1980.
In the next test the target is HLA-B*08:01. Described as above. The settings on record: source organism: Ravn virus - Ravn, Kenya, 1987.
In the next test the target is HLA-B*08:03. Described as above. As to conditions: source organism: Ravn virus - Ravn, Kenya, 1987.
Test [23] deals with HLA-B*57:01. Described as above. The settings on record: source organism: Marburg virus - Musoke, Kenya, 1980.
In a further test the target is HLA-A*02:11. Briefly: IEDB peptide-MHC binding, purified MHC/competitive/fluorescence; filed as Kd, often an IC50 or EC50 that approximates it; ≥ and ≤ were set here for values at or beyond the usual limits of such assays. As to conditions: source organism: Vibrio parahaemolyticus K5030.
The next test concerns the target HLA-A*29:02. Described as above. As to conditions: source organism: Vibrio parahaemolyticus K5030.
Test [24] addresses HLA-A*03:01. The description is as above. The settings on record: source organism: Vibrio parahaemolyticus K5030.
The mark [25] stands for this setting: source organism: Influenza A virus (A/swine/Italy/1513-1/1998(H1N1)).
Setting [26] is: source organism: Vibrio parahaemolyticus K5030.

Regarding FPSVFINPI, the Kd with HLA-C*05:01 (source organism: Vaccinia virus Copenhagen) is not below 20 µM.

Regarding FVDTMSIYI, the Kd stood at 0.0161 µM in the test with HLA-A*02:06; 0.37 µM with HLA-A*02:03 [1]; 0.0207 µM with HLA-A*02:02; 0.002 µM in the test with HLA-C*05:01 (source organism: Variola virus); 0.0004 µM with HLA-A*02:01 [2] (source organism: Variola virus).

Consider MMWEINGPK, for which the Kd with HLA-A*24:03 (setting [25]), with HLA-A*02:19 (setting [25]), with HLA-B*15:01 [3] (setting [25]), with HLA-B*15:17 [4], with HLA-B*39:01 (setting [25]) and in the test with HLA-A*02:03 [5] was not below 20 µM in each case. Besides, the Kd in the test with HLA-A*26:01 [6] (setting [25]) was not below 20 µM; with HLA-A*69:01 [7], not below 20 µM; in the test with HLA-A*02:12 (setting [25]), not below 20 µM; in the test with HLA-A*31:01 [8] it was 0.0751 µM; with HLA-B*18:01 [9] (setting [25]), not below 20 µM; with HLA-B*46:01 [10] (setting [25]) it was not below 20 µM. Further, the Kd with HLA-B*27:03 (setting [25]), with HLA-A*68:02 [11], with HLA-B*57:01 [12] (setting [25]) and with HLA-B*51:01 (setting [25]) was not below 20 µM each time.

Regarding QVGIFLICK, the dissociation constant Kd in the test with HLA-B*15:01 [13], with HLA-B*15:17 [14], with HLA-A*26:02, with HLA-A*26:01 [15], with HLA-A*69:01 [16] and with HLA-B*48:01 was not below 20 µM throughout. Besides, the Kd in the test with HLA-B*58:01 is not below 20 µM; with HLA-A*01:01 it was not below 20 µM; with HLA-A*11:01 it was 2.8 µM; with HLA-A*03:01 [17], not below 20 µM; with HLA-B*27:05, not below 20 µM; with HLA-A*31:01 [18] it was not below 20 µM. For the same sequence, the dissociation constant Kd in the test with HLA-A*02:01 [19], in the test with HLA-B*18:01 [20], with HLA-B*46:01 [21], with HLA-B*40:01, with HLA-A*68:02 [22] and with HLA-B*07:02 was not below 20 µM throughout. In addition, the dissociation constant Kd with HLA-B*08:01, with HLA-B*08:03 and in the test with HLA-B*57:01 [23] was not below 20 µM throughout.

As for WLGDVWQEK, the Kd with HLA-A*24:03 (setting [26]) is not below 20 µM; with HLA-A*02:19 (setting [26]) it was not below 20 µM; in the test with HLA-B*15:01 [3] (setting [26]) it was not below 20 µM; in the test with HLA-A*02:11, 0.0251 µM; with HLA-A*29:02, not below 20 µM; with HLA-B*39:01 (setting [26]), not below 20 µM. Also, the Kd in the test with HLA-A*26:01 [6] (setting [26]), with HLA-A*03:01 [24], with HLA-A*02:12 (setting [26]), in the test with HLA-A*02:01 [2] (setting [26]), with HLA-B*18:01 [9] (setting [26]) and with HLA-B*46:01 [10] (setting [26]) was not below 20 µM throughout. Besides, the dissociation constant Kd with HLA-B*27:03 (setting [26]), with HLA-B*57:01 [12] (setting [26]) and with HLA-B*51:01 (setting [26]) was not below 20 µM in each case.
